{"source": "patent US12104181B2", "about": "“Compositions and methods for treating viral infections targeting TRIM7” (THE BOARD OF REGENTS OF THE UNIVERSITY OF TEXAS SYSTEM, priority 2021, dated 2024)", "molecules": {"B1": {"name": "RFPL2: human RING type E3 ligase expressed from lentiviral vector (protein, UniProt O75678 1-378, looked up)", "Ret finger protein-like 2": "MEVAELGFPETAVSQSRICLCAVLCGHWDFADMMVIRSLSLIRLEGVEGRDPVGGGNLTNKRPSCAPSPQDLSAQWKQLEDRGASSRRVDMAALFQEASSCPVCSDYLEKPMSLECGCAVCLKCINSLQKEPHGEDLLCCCSSMVSRKNKIRRNRQLERLASHIKELEPKLKKILQMNPRMRKFQVDMTLDANTANNFLLISDDLRSVRSGRIRQNRQDLAERFDVSVCILGSPRFTCGRHCWEVDVGTSTEWDLGVCRESVHRKGRIQLTTELGFWTVSLRDGGRLSATTVPLTFLFVDRKLQRVGIFLDMGMQNVSFFDAESGSHVYTFRSVSAEEPLRPFLAPSVPPNGDQGVLSICPLMNSGTTDAPVRPGEAK", "modifications": "lentiviral expression", "notes": "human RING type E3 ligase expressed from lentiviral vector"}, "B2": {"name": "PCGF6: human RING type E3 ligase expressed from lentiviral vector (protein, UniProt Q9BYE7 1-350, looked up)", "Polycomb group RING finger …": "MEGVAVVTAGSVGAAKTEGAAALPPPPPVSPPALTPAPAAGEEGPAPLSETGAPGCSGSRPPELEPERSLGRFRGRFEDEDEELEEEEELEEEEEEEEEDMSHFSLRLEGGRQDSEDEEERLINLSELTPYILCSICKGYLIDATTITECLHTFCKSCIVRHFYYSNRCPKCNIVVHQTQPLYNIRLDRQLQDIVYKLVINLEEREKKQMHDFYKERGLEVPKPAVPQPVPSSKGRSKKVLESVFRIPPELDMSLLLEFIGANEGTGHFKPLEKKFVRVSGEATIGHVEKFLRRKMGLDPACQVDIICGDHLLEQYQTLREIRRAIGDAAMQDGLLVLHYGLVVSPLKIT"}, "B3": {"name": "MARCH5: human RING type E3 ligase expressed from lentiviral vector (protein, UniProt Q9NX47 1-278, looked up)", "E3 ubiquitin-protein ligase …": "MPDQALQQMLDRSCWVCFATDEDDRTAEWVRPCRCRGSTKWVHQACLQRWVDEKQRGNSTARVACPQCNAEYLIVFPKLGPVVYVLDLADRLISKACPFAAAGIMVGSIYWTAVTYGAVTVMQVVGHKEGLDVMERADPLFLLIGLPTIPVMLILGKMIRWEDYVLRLWRKYSNKLQILNSIFPGIGCPVPRIPAEANPLADHVSATRILCGALVFPTIATIVGKLMFSSVNSNLQRTILGGIAFVAIKGAFKVYFKQQQYLRQAHRKILNYPEQEEA"}, "B4": {"name": "RNF220: human RING type E3 ligase expressed from lentiviral vector (protein, UniProt Q5VTB9 1-566, looked up)", "E3 ubiquitin-protein ligase …": "MDLHRAAFKMENSSYLPNPLASPALMVLASTAEASRDASIPCQQPRPFGVPVSVDKDVHIPFTNGSYTFASMYHRQGGVPGTFANRDFPPSLLHLHPQFAPPNLDCTPISMLNHSGVGAFRPFASTEDRESYQSAFTPAKRLKNCHDTESPHLRFSDADGKEYDFGTQLPSSSPGSLKVDDTGKKIFAVSGLISDREASSSPEDRNDRCKKKAAALFDSQAPICPICQVLLRPSELQEHMEQELEQLAQLPSSKNSLLKDAMAPGTPKSLLLSASIKREGESPTASPHSSATDDLHHSDRYQTFLRVRANRQTRLNARIGKMKRRKQDEGQREGSCMAEDDAVDIEHENNNRFEEYEWCGQKRIRATTLLEGGFRGSGFIMCSGKENPDSDADLDVDGDDTLEYGKPQYTEADVIPCTGEEPGEAKEREALRGAVLNGGPPSTRITPEFSKWASDEMPSTSNGESSKQEAMQKTCKNSDIEKITEDSAVTTFEALKARVRELERQLSRGDRYKCLICMDSYSMPLTSIQCWHVHCEECWLRTLGAKKLCPQCNTITAPGDLRRIYL"}, "B5": {"name": "MUL1: human RING type E3 ligase expressed from lentiviral vector (protein, UniProt Q969V5 1-352, looked up)", "Mitochondrial ubiquitin …": "MESGGRPSLCQFILLGTTSVVTAALYSVYRQKARVSQELKGAKKVHLGEDLKSILSEAPGKCVPYAVIEGAVRSVKETLNSQFVENCKGVIQRLTLQEHKMVWNRTTHLWNDCSKIIHQRTNTVPFDLVPHEDGVDVAVRVLKPLDSVDLGLETVYEKFHPSIQSFTDVIGHYISGERPKGIQETEEMLKVGATLTGVGELVLDNNSVRLQPPKQGMQYYLSSQDFDSLLQRQESSVRLWKVLALVFGFATCATLFFILRKQYLQRQERLRLKQMQEEFQEHEAQLLSRAKPEDRESLKSACVVCLSSFKSCVFLECGHVCSCTECYRALPEPKKCPICRQAITRVIPLYNS", "modifications": "lentiviral expression", "notes": "as for B1"}, "B6": {"name": "RNF38: human RING type E3 ligase expressed from lentiviral vector (protein, UniProt Q9H0F5 1-515, looked up)", "E3 ubiquitin-protein ligase …": "MACKISPGANSASLPGHPNKVICERVRLQSLFPLLPSDQNTTVQEDAHFKAFFQSEDSPSPKRQRLSHSVFDYTSASPAPSPPMRPWEMTSNRQPPSVRPSQHHFSGERCNTPARNRRSPPVRRQRGRRDRLSRHNSISQDENYHHLPYAQQQAIEEPRAFHPPNVSPRLLHPAAHPPQQNAVMVDIHDQLHQGTVPVSYTVTTVAPHGIPLCTGQHIPACSTQQVPGCSVVFSGQHLPVCSVPPPMLQACSVQHLPVPYAAFPPLISSDPFLIHPPHLSPHHPPHLPPPGQFVPFQTQQSRSPLQRIENEVELLGEHLPVGGFTYPPSAHPPTLPPSAPLQFLTHDPLHQEVSFGVPYPPFMPRRLTGRSRYRSQQPIPPPPYHPSLLPYVLSMLPVPPAVGPTFSFELDVEDGEVENYEALLNLAERLGEAKPRGLTKADIEQLPSYRFNPNNHQSEQTLCVVCMCDFESRQLLRVLPCNHEFHAKCVDKWLKANRTCPICRADASEVHRDSE"}, "B7": {"name": "RNF130: human RING type E3 ligase expressed from lentiviral vector (protein, UniProt Q86XS8 28-419, looked up)", "E3 ubiquitin-protein ligase …": "DNASQEYYTALINVTVQEPGRGAPLTFRIDRGRYGLDSPKAEVRGQVLAPLPLHGVADHLGCDPQTRFFVPPNIKQWIALLQRGNCTFKEKISRAAFHNAVAVVIYNNKSKEEPVTMTHPGTGDIIAVMITELRGKDILSYLEKNISVQMTIAVGTRMPPKNFSRGSLVFVSISFIVLMIISSAWLIFYFIQKIRYTNARDRNQRRLGDAAKKAISKLTTRTVKKGDKETDPDFDHCAVCIESYKQNDVVRILPCKHVFHKSCVDPWLSEHCTCPMCKLNILKALGIVPNLPCTDNVAFDMERLTRTQAVNRRSALGDLAGDNSLGLEPLRTSGISPLPQDGELTPRTGEINIAVTKEWFIIASFGLLSALTLCYMIIRATASLNANEVEWF"}, "B8": {"name": "RNF4: human RING type E3 ligase expressed from lentiviral vector (protein, UniProt P78317 1-190, looked up)", "E3 ubiquitin-protein ligase …": "MSTRKRRGGAINSRQAQKRTREATSTPEISLEAEPIELVETAGDEIVDLTCESLEPVVVDLTHNDSVVIVDERRRPRRNARRLPQDHADSCVVSSDDEELSRDRDVYVTTHTPRNARDEGATGLRPSGTVSCPICMDGYSEIVQNGRLIVSTECGHVFCSQCLRDSLKNANTCPTCRKKINHKRYHPIYI", "modifications": "lentiviral expression", "notes": "as for B1"}, "B9": {"name": "CHFR: human RING type E3 ligase expressed from lentiviral vector (protein, UniProt Q96EP1 1-664, looked up)", "E3 ubiquitin-protein ligase …": "MERPEEGKQSPPPQPWGRLLRLGAEEGEPHVLLRKREWTIGRRRGCDLSFPSNKLVSGDHCRIVVDEKSGQVTLEDTSTSGTVINKLKVVKKQTCPLQTGDVIYLVYRKNEPEHNVAYLYESLSEKQGMTQESFEANKENVFHGTKDTSGAGAGRGADPRVPPSSPATQVCFEEPQPSTSTSDLFPTASASSTEPSPAGRERSSSCGSGGGGISPKGSGPSVASDEVSSFASALPDRKTASFSSLEPQDQEDLEPVKKKMRGDGDLDLNGQLLVAQPRRNAQTVHEDVRAAAGKPDKMEETLTCIICQDLLHDCVSLQPCMHTFCAACYSGWMERSSLCPTCRCPVERICKNHILNNLVEAYLIQHPDKSRSEEDVQSMDARNKITQDMLQPKVRRSFSDEEGSSEDLLELSDVDSESSDISQPYVVCRQCPEYRRQAAQPPHCPAPEGEPGAPQALGDAPSTSVSLTTAVQDYVCPLQGSHALCTCCFQPMPDRRAEREQDPRVAPQQCAVCLQPFCHLYWGCTRTGCYGCLAPFCELNLGDKCLDGVLNNNSYESDILKNYLATRGLTWKNMLTESLVALQRGVFLLSDYRVTGDTVLCYCCGLRSFRELTYQYRQNIPASELPVAVTSRPDCYWGRNCRTQVKAHHAMKFNHICEQTRFKN"}, "B10": {"name": "ZNRF1: human RING type E3 ligase expressed from lentiviral vector (protein, UniProt Q8ND25 2-227, looked up)", "E3 ubiquitin-protein ligase …": "GGKQSTAARSRGPFPGVSTDDSAVPPPGGAPHFGHYRTGGGAMGLRSRSVSSVAGMGMDPSTAGGVPFGLYTPASRGTGDSERAPGGGGSASDSTYAHGNGYQETGGGHHRDGMLYLGSRASLADALPLHIAPRWFSSHSGFKCPICSKSVASDEMEMHFIMCLSKPRLSYNDDVLTKDAGECVICLEELLQGDTIARLPCLCIYHKSCIDSWFEVNRSCPEHPAD", "modifications": "lentiviral expression", "notes": "as for B1"}, "B11": {"name": "RNFT1: human RING type E3 ligase expressed from lentiviral vector (protein, UniProt Q5M7Z0 1-435, looked up)", "E3 ubiquitin-protein ligase …": "MPLFLLSLPTPPSASGHERRQRPEAKTSGSEKKYLRAMQANRSQLHSPPGTGSSEDASTPQCVHTRLTGEGSCPHSGDVHIQINSIPKECAENASSRNIRSGVHSCAHGCVHSRLRGHSHSEARLTDDTAAESGDHGSSSFSEFRYLFKWLQKSLPYILILSVKLVMQHITGISLGIGLLTTFMYANKSIVNQVFLRERSSKIQCAWLLVFLAGSSVLLYYTFHSQSLYYSLIFLNPTLDHLSFWEVFWIVGITDFILKFFFMGLKCLILLVPSFIMPFKSKGYWYMLLEELCQYYRTFVPIPVWFRYLISYGEFGNVTRWSLGILLALLYLILKLLEFFGHLRTFRQVLRIFFTQPSYGVAASKRQCSDVDDICSICQAEFQKPILLICQHIFCEECMTLWFNREKTCPLCRTVISDHINKWKDGATSSHLQIY", "modifications": "lentiviral expression", "notes": "as for B1"}}, "data": [{"test_system": "coxsackievirus B3 (CVB3-GFP)", "type": "cell-based", "settings": "HeLa cells, GFP-positive cells within RFP-positive gate, replicate R1", "units": {"Percent Infected R1": "%"}, "values": [{"molecule": "B1", "Percent Infected R1": 93.8}, {"molecule": "B2", "Percent Infected R1": 94.6}, {"molecule": "B3", "Percent Infected R1": 91.5}, {"molecule": "B4", "Percent Infected R1": 96.6}, {"molecule": "B5", "Percent Infected R1": 80.1}, {"molecule": "B6", "Percent Infected R1": 88.2}, {"molecule": "B7", "Percent Infected R1": 91.4}, {"molecule": "B8", "Percent Infected R1": 93.3}, {"molecule": "B9", "Percent Infected R1": 87.2}, {"molecule": "B10", "Percent Infected R1": 95.8}, {"molecule": "B11", "Percent Infected R1": 95.2}]}, {"test_system": "coxsackievirus B3 (CVB3-GFP)", "type": "cell-based", "settings": "HeLa cells, replicate R1", "values": [{"molecule": "B1", "Z score R1": 0.07}, {"molecule": "B2", "Z score R1": 0.08}, {"molecule": "B3", "Z score R1": 0.04}, {"molecule": "B4", "Z score R1": 0.1}, {"molecule": "B5", "Z score R1": "−0.11"}, {"molecule": "B6", "Z score R1": "−0.01"}, {"molecule": "B7", "Z score R1": 0.04}, {"molecule": "B8", "Z score R1": 0.06}, {"molecule": "B9", "Z score R1": "−0.02"}, {"molecule": "B10", "Z score R1": 0.09}, {"molecule": "B11", "Z score R1": 0.08}]}]}
